# Measured values published in US20080064052A1, “Crystal of a Receptor-Ligand Complex and methods of use” (priority 2006, published 2008).
# T1: mouse EphB4 ectodomain Fc fusion protein (mouse EphB4-Fc-His, R&D Systems) (mouse, UniProt P54761 16-539)
# T1 construct: extracellular domain; also called murine EphB4; not shown: Fc part of a bought fusion protein; His tag of the bought protein
# T1 sequence (looked up): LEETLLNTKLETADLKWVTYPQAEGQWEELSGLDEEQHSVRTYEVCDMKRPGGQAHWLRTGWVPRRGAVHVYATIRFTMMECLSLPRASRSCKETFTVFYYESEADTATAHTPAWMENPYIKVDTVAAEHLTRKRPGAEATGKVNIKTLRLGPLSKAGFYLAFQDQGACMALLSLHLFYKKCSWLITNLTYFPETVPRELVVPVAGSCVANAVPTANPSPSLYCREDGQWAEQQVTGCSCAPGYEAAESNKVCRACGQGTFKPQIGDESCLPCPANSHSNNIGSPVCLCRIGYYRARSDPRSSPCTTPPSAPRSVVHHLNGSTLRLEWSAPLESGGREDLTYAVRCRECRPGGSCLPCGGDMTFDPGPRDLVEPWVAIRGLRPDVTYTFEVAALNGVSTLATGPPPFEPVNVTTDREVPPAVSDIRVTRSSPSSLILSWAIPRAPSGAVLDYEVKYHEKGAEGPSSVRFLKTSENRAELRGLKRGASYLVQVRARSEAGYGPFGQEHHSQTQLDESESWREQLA
# T2: human EphB4 ephrin-binding domain, EphB4 (17-196) (human, UniProt P54760 17-196)
# T2 sequence: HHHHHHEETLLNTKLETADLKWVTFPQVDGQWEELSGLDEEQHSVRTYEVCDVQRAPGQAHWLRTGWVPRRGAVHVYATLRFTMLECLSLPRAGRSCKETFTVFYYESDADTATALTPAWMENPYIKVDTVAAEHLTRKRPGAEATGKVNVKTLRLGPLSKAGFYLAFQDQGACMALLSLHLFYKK
# How the values were obtained:
# [1] = target: T1, mouse EphB4 ectodomain Fc fusion …; test: competition ELISA: inhibition of mouse ephrin-B2 AP binding to immobilized mouse EphB4 ectodomain Fc
# Description: (§1) The ability of peptides to compete the binding of mouse ephrin-B2 alkaline phosphatase to immobilized mouse EphB4-Fc-His (R&D Systems) was measured by ELISA as previously described (Koolpe et al., 2005).
# [2] = target: T2, human EphB4 ephrin-binding domain, …; test: ITC at 25 °C
# Description: (§2) Experiments were performed at 25° C. in 50 mM Tris pH 7.8, 150 mM NaCl, 1 mM CaCl₂.
# (§3) Isothermal titration calorimetry and ELISA experiments: EphB4and ephrin-B2 were either dialyzed or buffer exchanged into 50 mM Tris-Cl (pH 7.8 at 25° C.), 150 mM NaCl, 1 mM CaCl₂, prior to use in calorimetry experiments. Peptides were dissolved into the same buffer used for the dialysis of EphB4. The concentration of EphB4, ephrin-B2 and the peptides was determined by measuring the A₂₈₀ and using the theoretical-extinction coefficient (Gill and von Hippel, 1989). ITC experiments were performed with a Microcal MCS ITC at 25° C. Following an initial injection of 2 μl, titrations were performed by making 20 13 μl injections of peptide into EphB4 in the sample cell to produce an approximate final 2:1 ratio of injectant to sample in the cell. […] Corrections for heats of dilution for the peptides and ephrin-B2 were determined by performing titrations of peptide or ephrin-B2 solutions into buffer. […] Titration data were analyzed using Origin ITC software (Version 5.0, Microcal Software Inc.) and curves were fit to a single binding site model (Wiseman et al., 1989). […] A lower limit for the binding constant was determined by performing a titration in which the sample cell contained 30 μM EphB4 and the injection syringe contained a 1.45 mM solution of the peptide, producing a final ratio of peptide to EphB4 of 10:1.
# [3] = target: T2, human EphB4 ephrin-binding domain, …; test: ITC at 25 °C, peptide injected into human EphB4 (17-196)
# Description: Isothermal titration calorimetry and ELISA experiments: EphB4and ephrin-B2 were either dialyzed or buffer exchanged into 50 mM Tris-Cl (pH 7.8 at 25° C.), 150 mM NaCl, 1 mM CaCl₂, prior to use in calorimetry experiments. Peptides were dissolved into the same buffer used for the dialysis of EphB4. The concentration of EphB4, ephrin-B2 and the peptides was determined by measuring the A₂₈₀ and using the theoretical-extinction coefficient (Gill and von Hippel, 1989). ITC experiments were performed with a Microcal MCS ITC at 25° C. Following an initial injection of 2 μl, titrations were performed by making 20 13 μl injections of peptide into EphB4 in the sample cell to produce an approximate final 2:1 ratio of injectant to sample in the cell. For most titrations the sample cell contained 15 μM EphB4 and the injection syringe contained a 200 μM solution of the peptide. Titrations with ephrin-B2 contained 13 μM EphB4 in the sample cell and 290 μM ephrin-B2 in the syringe. Prior to loading the sample cell, EphB4 was centrifuged at 18,000 g for 5 min at 4° C. to remove aggregates and degassed for 5 minutes at room temperature. Corrections for heats of dilution for the peptides and ephrin-B2 were determined by performing titrations of peptide or ephrin-B2 solutions into buffer. Dilution data were fit to a line and subtracted from the corresponding titration data. Titration data were analyzed using Origin ITC software (Version 5.0, Microcal Software Inc.) and curves were fit to a single binding site model (Wiseman et al., 1989). […] A lower limit for the binding constant was determined by performing a titration in which the sample cell contained 30 μM EphB4 and the injection syringe contained a 1.45 mM solution of the peptide, producing a final ratio of peptide to EphB4 of 10:1. The data was fit assuming a stoichiometry of 1 and at least 60% saturation of binding at the final peptide concentration (Turnbull and Daranas, 2003).
# [4] = target: T1, mouse EphB4 ectodomain Fc fusion …; test: competition ELISA: inhibition of mouse ephrin-B2 AP binding to immobilized mouse EphB4 ectodomain Fc; text sentence that cites Table 1A; same ELISA
# Description: as §1
# [5] = target: T2, human EphB4 ephrin-binding domain, …; test: ITC at 25 °C, 1.45 mM peptide injected into 30 µM human EphB4 (17-196)
# Description: as §2, §3
Binder,IC50 [1] [µM],fold reduction in affinity (against the peptides that keep Tyr-P3) [2] [fold],Kd [3] [nM],TΔS [3] [kcal/mol],ΔG [3] [kcal/mol],ΔH [3] [kcal/mol],IC50 [4] [nM],ΔH [5] [kcal/mol]
"LFSPNGPIARAW (TNYL-RAW without Thr-P1, Asn-P2 and Tyr-P3) [LFSP-RAW peptide (LFSPNGPIARAW)]",~15,40,3500,2.1,-7.4,-5.3,,
"TNYLFSPNGPIARAW (Synthetic 15-mer (Biopeptide, Inc.); Peptide positions are printed as P1 to P15; also called antagonistic peptide) [TNYL-RAW peptide (TNYLFSPNGPIARAW)]",0.015,,71,-4.9,-9.8,-14.7,~15,
TNYLFSPNGPIA [TNYL peptide (TNYLFSPNGPIA)],150,,,,,,,-9.6
